Data set [1] has as its target T1, L7Ae (UniProt O29494 O29494:1-119). Briefly: EMSA; 150 KCl (unit printed ml), 1.5 mM MgCl2, 20 mM HEPES-KOH pH 7.5; triangle also by HS-AFM. The note with it: tags: expressed from pET-28(+) (Novagen) in E. coli Rosetta; chain copies: 3 per LS-RNA; loop of double-stranded RNA with three K-turn motifs. Here is the method:
(§1) Subsequently, according to electrophoretic mobility shift assay (EMSA), the interaction of L7Ae with the LS-RNA was analyzed. After completion of electrophoresis using polyacrylamide gel, the polyacrylamide gel was stained with SYBR Green I and II (Lonza), and formation of an RNA-protein complex was then observed. As a result, it was confirmed that a triangular structure was formed by the interaction of the LS-RNA with L7Ae, as expected, in all of the LS-RNAs (FIG. 2).
In general terms: Mobility shift assays separate free from complexed probe on a gel.

The target of data set [2] is T2, L7Ae-Affibody (L7Ae-AFB) (UniProt O29494 O29494:1-119). Briefly: EMSA. The following applies: chain copies: 3 per LS-RNA; loop of double-stranded RNA with three K-turn motifs. Here is the method: as §1
(§2) The function to recognize specific cancer cells was imparted to Tri-RNP. Specifically, a protein (L7Ae-AFB), in which the N-terminus of an affibody_{ZHER2:342} peptide (SEQ ID NOS: 25 and 26) was fused with the C-terminus of L7Ae via […] (SEQ ID NOS: 27 and 28), was prepared by transfecting a plasmid into Escherichia coli in accordance with Ohno, H., et al., as described above. This L7Ae-AFB was added to LS-RNA to construct RNP (Tri-AFB, FIG. 9A). When LS-26 was used as RNA (Tri-26-AFB), a triangular structure was found by HS-AFM, and it was also confirmed that a substance assumed as AFB was added to each vertex (FIG. 9B). Moreover, according to EMSA, it was confirmed that L7Ae-AFB binds to a K-turn motif, as with Tri-26 (FIG. 10).

Data set [3] deals with T1, L7Ae. As to the kind of experiment: EMSA; triangle also by HS-AFM. The note with it: tags: expressed from pET-28(+) (Novagen) in E. coli Rosetta; chain copies: 3 per LS-RNA; loop of double-stranded RNA with three K-turn motifs. Here is the method:
as §1

Data set [4] concerns the target T2, L7Ae-Affibody (L7Ae-AFB). Briefly: EMSA; triangle also by HS-AFM. The following applies: chain copies: 3 per LS-RNA; loop of double-stranded RNA with three K-turn motifs. How it is done: as §1, §2
Data set [5] addresses T1, L7Ae. Briefly: HS-AFM, triangular structure with L7Ae. The note with it: tags: expressed from pET-28(+) (Novagen) in E. coli Rosetta; chain copies: 3 per LS-RNA; loop with three K-turn motifs and a GFP siRNA duplex at each side. Here is the method: Subsequently, the Tri-RNPs were observed by […]. […] The cantilever was set at a resonance frequency of 400-1000 kHz and at a spring constant of 0.1-0.2 N/m. A probe was deposited on the cantilever by electron beam. The mica surface was coated with 0.1% APTES, and thereafter, a 50 nM sample that had been dissolved in an RNP-binding solvent and an AFM observation solvent (20 mM Tris-HCl (pH7.6) and 10 mM MgCl2) was left at rest on the mica. The image was analyzed using software such as Image J and WSxM.
Specifically, five RNAs were hybridized with S-26, L-26-1 (SEQ ID NO: 29), L-26-2 (SEQ ID NO: 30), L-26-3 (SEQ ID NO: 31), and antisense-GFP (SEQ ID NO: 32) in the same manner as described above, such that L-26 had siRNA for GFP at the three sides thereof, thereby producing LS-26-siGFP. Subsequently, LS-26-siGFP was mixed with L7Ae to produce Tri-26-siGFP having a triangular structure, and the structure of the Tri-26-siGFP was then confirmed by HS-AFM. […] As given above, a triangular structure (Tri-26-siGFP) having a structure containing three double strands having siRNA function could be constructed.

T1 sequence (O29494 whole entry, one chain of several): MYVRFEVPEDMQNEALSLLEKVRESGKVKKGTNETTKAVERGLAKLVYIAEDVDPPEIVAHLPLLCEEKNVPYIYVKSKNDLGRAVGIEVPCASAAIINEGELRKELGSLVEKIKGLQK
T2 sequence (O29494 whole entry, the tested form may be a part, one chain of several): as the sequence (O29494 whole entry, one chain of several) above

B1: LS-15 (dsRNA)
RNA 1: GGUGAAGGGCGUGAUGAGCGAGAAGUCCGGCUUCGGCGUGAUGAGCCCUGUGCCGGCCCUGGGCGUGAUGAGCAUUCCACC
RNA 2: GGACUUCUCGCUCUGACCCUUCACCGGUGGAAUGCUCUGACCCAGGGCCGGCACAGGGCUCUGACCGAAGCC
In the case of B1, the binding result in the data set with L7Ae [1] and with L7Ae-Affibody (L7Ae-AFB) [2] was “binds” throughout.

B2: LS-48 (dsRNA)
RNA 1: GGACGAGCUGUACACCAUGGUGACCGCCGCCGGGCGUGAUGAGCUCCAAGGACCCCAACGAGAAGCGCGAUCACAUGAUCUACUUCGGCUUCGGCGUGAUGAGCCCUGUGCUGCUGCCCGAUAACCACUACCUGCCAUCACCCACGGCCCUGGGCGUGAUGAGCAUUCCACCCAGAGCGC
RNA 2: GGUGUACAGCUCGUCCGCGCUCUGGGUGGAAUGCUCUGACCCAGGGCCGUGGGUGAUGGCAGGUAGUGGUUAUCGGGCAGCAGCACAGGGCUCUGACCGAAGCCGAAGUAGAUCAUGUGAUCGCGCUUCUCGUUGGGGUCCUUGGAGCUCUGACCCGGCGGCGGUCACCAU
For B2, the binding result in the data set with L7Ae-Affibody (L7Ae-AFB) [2] and in the data set with L7Ae [3] was “binds” throughout.

B3: LS-26 (dsRNA)
RNA 1: GGCGCAAAGGCCUGUAAUCGGCGUGAUGAGCCAUGCGAGGAGGAAAUGAAGUCCAAUGGCGUGAUGAGCCUCUACGGGAAGAGCAUGCCCAUCCGGGCGUGAUGAGCGUAGCAA
RNA 2: GGCCUUUGCGCCUUGCUACGCUCUGACCCGGAUGGGCAUGCUCUUCCCGUAGAGGCUCUGACCAUUGGACUUCAUUUCCUCCUCGCAUGGCUCUGACCGAUUACA
Turning to B3, the binding result with L7Ae-Affibody (L7Ae-AFB) [4] and with L7Ae [3] was “binds” each time.

B4: LS-26-siGFP (dsRNA)
RNA 1: GGCAUCAAGGUGAACUUCAAGAUCCGCAAAGGCCUGUAAUCGGCGUGAUGAGCCAUGCGAGGA
RNA 2: GGCAUCAAGGUGAACUUCAAGAUCCGGAAAUGAAGUCCAAUGGCGUGAUGAGCCUCUACGGGA
RNA 3: GGCAUCAAGGUGAACUUCAAGAUCCAGAGCAUGCCCAUCCGGGCGUGAUGAGCGUAGCAAGGC
RNA 4: GGCCUUUGCGCCUUGCUACGCUCUGACCCGGAUGGGCAUGCUCUUCCCGUAGAGGCUCUGACCAUUGGACUUCAUUUCCUCCUCGCAUGGCUCUGACCGAUUACA
RNA 5: GGAUCUUGAAGUUCACCUUGAUGCCAG
Take B4: in the data set with L7Ae [5], the binding result is on record as “binds”.

(Values after patent US20170327600, “RNA-PROTEIN COMPLEX, AND RNA AND PROTEIN DELIVERY SYSTEM USING THE SAME” (KYOTO UNIVERSITY, published 2017).)
